T1: Sec31EE (residues 370–746, M540E and L544E) (yeast, UniProt P38968 370-746, M540E | L544E)
T1 sequence (looked up): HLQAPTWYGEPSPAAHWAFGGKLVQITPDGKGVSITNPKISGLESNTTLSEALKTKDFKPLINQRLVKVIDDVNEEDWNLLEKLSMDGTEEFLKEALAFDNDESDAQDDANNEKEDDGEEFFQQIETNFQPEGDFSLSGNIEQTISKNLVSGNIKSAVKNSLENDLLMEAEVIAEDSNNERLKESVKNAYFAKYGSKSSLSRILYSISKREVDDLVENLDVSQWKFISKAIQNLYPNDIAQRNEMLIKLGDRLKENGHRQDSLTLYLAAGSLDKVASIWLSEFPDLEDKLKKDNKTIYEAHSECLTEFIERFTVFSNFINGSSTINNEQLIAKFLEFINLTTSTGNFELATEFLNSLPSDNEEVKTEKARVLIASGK

B1: Sec16 central conserved domain (residues 984–1421) (domain or fragment, S. cerevisiae, UniProt P48415 984-1421, looked up)
chain: DNEALLRRQFPIFHWSAANKVVYAVPPIPDQSQYMISSSIVQEIKVTPIDQIIKPNDMLKSFPGPLGSAKLKKKDLTKWMETTIKSISENESSTDMTIWQLLEMKLNDKVNWKNISKLLYNSDELLMYLSQPFPNGDMIPNAYRLDINCQMRVLAFLQTGNHDEALRLALSKRDYAIALLVGSLMGKDRWSEVIQKYLYEGFTAGPNDQKELAHFLLLIFQVFVGNSKMAIKSFYTNNETSQWASENWKSIVAAVLINIPENNEDPLLIPPVVLEFLIEFGIFLTKKGLTAAASTLFIIGNVPLSNEPVMADSDVIFESIGNMNTFESILWDEIYEYIFSYDPKFKGFSSILPQKIYHASLLQEQGLNSLGTKYTDYLSSSVRKLPKKDILTINLTRELSEVASRLSESNTGWLAKPKLSSVWGQLDKSFNKYIGGDD
B2: Sec31 (residues 370–746) (domain or fragment, yeast, UniProt P38968 370-746, looked up)
chain: T1 sequence (looked up) with E171M, E175L
B3: Sec13 (natural protein, S. cerevisiae, UniProt Q04491 1-297, looked up)
chain: MVVIANAHNELIHDAVLDYYGKRLATCSSDKTIKIFEVEGETHKLIDTLTGHEGPVWRVDWAHPKFGTILASCSYDGKVLIWKEENGRWSQIAVHAVHSASVNSVQWAPHEYGPLLLVASSDGKVSVVEFKENGTTSPIIIDAHAIGVNSASWAPATIEEDGEHNGTKESRKFVTGGADNLVKIWKYNSDAQTYVLESTLEGHSDWVRDVAWSPTVLLRSYLASVSQDRTCIIWTQDNEQGPWKKTLLKEEKFPDVLWRASWSLSGNVLALSGGDNKVTLWKENLEGKWEPAGEVHQ
B4: Sec31ΔL (residues 370–746, deletion of residues 474–507) (domain or fragment, yeast, UniProt P38968 370-746, looked up)
chain: HLQAPTWYGEPSPAAHWAFGGKLVQITPDGKGVSITNPKISGLESNTTLSEALKTKDFKPLINQRLVKVIDDVNEEDWNLLEKLSMDGTEEFLKEALAFDNDESGNIEQTISKNLVSGNIKSAVKNSLENDLLMEAMVIALDSNNERLKESVKNAYFAKYGSKSSLSRILYSISKREVDDLVENLDVSQWKFISKAIQNLYPNDIAQRNEMLIKLGDRLKENGHRQDSLTLYLAAGSLDKVASIWLSEFPDLEDKLKKDNKTIYEAHSECLTEFIERFTVFSNFINGSSTINNEQLIAKFLEFINLTTSTGNFELATEFLNSLPSDNEEVKTEKARVLIASGK

The data set “AUC” concerns the molecule itself. Briefly: AUC.
The data set “SEC” concerns the molecule itself. Briefly: SEC. (SEC sorts molecules by how far they enter the pores of the column.)
The target of data set [1] is T1, Sec31EE (residues 370–746, M540E and …). Briefly: SEC.
For data set [2], the target named is B1. Briefly: AUC.
The data set “crystal structure” concerns the molecule itself. Briefly: crystal structure.

Substitutions are numbered along the chain they refer to.

In general, stoichiometry N refers to a count of units in the complex or per binding partner. Consider B1, for which the “stoichiometry N” value in the data set “AUC” is 2 copies of Sec16 in the tetramer.

As for B2, the binding result in “SEC” is recorded as “binds”.

Consider B3, for which the “stoichiometry N” value in data set [1] is 1 Sec13 per Sec31EE (printed 1:1); in data set [2], 1 Sec13 per Sec16 (printed 2:2).

B4: the binding result in “crystal structure” is reported as “binds”.
